Like-named read-outs stand apart in the source and are kept apart here.
Key:
[1] = molecular target: recombinant HA of H9N2 A/Hongkong/1073/1999, biotinylated (Influenza A virus A/Hong Kong/1073/1999 …, UniProt Q9ICY5, strain, biotin); assay: Meso Scale Discovery (MSD) electrochemiluminescence binding assay; settings: both partners purified
[2] = molecular target: recombinant HA of H7N9 A/Shanghai/02/2013, biotinylated (Influenza A virus A/Shanghai/02/2013 …, UniProt R4NN21, strain, biotin); assay: as above; settings: both partners purified
[3] = molecular target: T1, recombinant HA of H3N2 A/Hongkong/1/1968, biotinylated (Influenza A virus A/Hong Kong/1/1968 …, UniProt Q91MA7, strain, biotin); assay: as above; settings: both partners purified
T1 construct: source: plasmid pCMV/R-HA-AviHis, Andrews et al., 2017

[4] = molecular target: recombinant HA of H3N2 A/Texas/50/2012, biotinylated (Influenza A virus A/Texas/50/2012 (H3N2), UniProt R4L1D1, strain, biotin); assay: as above; settings: both partners purified
[5] = molecular target: recombinant HA of H1N1 A/New Caledonia/20/1999, biotinylated (Influenza A virus A/New …, UniProt Q6WG00, strain, biotin); assay: as above; settings: both partners purified
[6] = molecular target: T2, recombinant HA of H5N1 A/Indonesia/05/2005, biotinylated (Influenza A virus A/Indonesia/05/2005 …, UniProt C5MRF2, strain, biotin); assay: as above; settings: both partners purified
[7] = molecular target: T3, recombinant HA of H1N1 A/California/04/2009, biotinylated (Influenza A virus A/California/04/2009 …, UniProt C3W5S1, strain, biotin); assay: as above; settings: both partners purified
T3 construct: source: plasmid pCMV/R-HA-AviHis, Andrews et al., 2017

[8] = molecular target: H3N2 A/Texas/50/2012 hemagglutinin (HA), biotinylated recombinant (influenza A virus A/Texas/50/2012 (H3N2), biotin); assay: BLI; settings: both partners purified
[9] = molecular target: H9N2 A/Hongkong/1073/1999 hemagglutinin (HA), biotinylated recombinant (influenza A virus A/Hongkong/1073/1999 …, biotin); assay: BLI; settings: both partners purified
[10] = molecular target: H7N9 A/Shanghai/02/2013 hemagglutinin (HA), biotinylated recombinant (Influenza A virus A/Shanghai/02/2013 …, UniProt R4NN21, biotin); assay: BLI; settings: both partners purified
[11] = molecular target: T2, recombinant HA of H5N1 …
[12] = molecular target: T3, recombinant HA of H1N1 …
[13] = molecular target: T4, HA ectodomain of A/California/04/2009 (H1N1), cleaved mature HA (HA1/HA2) (influenza A virus A/California/04/2009 …); assay: crystal structure; settings: both partners purified
T4 construct: copies: 3 + 3

B1: 54-1G05 (clonotype B), IgG (antibody, V domains shown)
VH: QVQLQQSGPRLVKPSQTLSLTCAISGDSVSSSSAVWTWIRQSPSRGLEWLGRTYYRSKWYDDYAVSVQGRITINPDTSKNQISLQLNSVTPDDTAVYYCARSSINIFGVFVMAMDVWGQGTAVTVSS
VL: EIVLTQSPGTLSLSPGERVTLSCRASQTVYNSYLAWYQQKPGQAPTLLIYGTSTRATGVPDRFSGSGSGTVFTLTISRLEPEDFAVYFCQQYSTSPRALTFGGGTKVEIK
notes: source: Expi293 cells, transfected, purified from the supernatant (Protein A)
Q: Does B1 bind [1]?
A: binds

Q: Does B1 bind [2]?
A: binds

Q: Does B1 bind [3]?
A: binds

Q: Does B1 bind [4]?
A: binds

Q: Does B1 bind [5]?
A: binds

Q: Does B1 bind [6]?
A: binds

Q: Does B1 bind [7]?
A: binds

B2: 58-6E11 Fab (Fab, V domains shown)
VH: QVQLPQSGPGLVKPSQTLSLTCAISGDSVSSNSAVWTWIRQSPSRGLEWLGRTYYRSKWYNDYAVSVESRITINPDTSKNQFSLQLKSVTPEDTAVYFCARSGITIFGVSVMAMDIWGQGTTVIVSS
VL: EIVLTQSPGTLSLSPGERATLSCRASQNVAVSYLAWYQQKPGQPPRLLIYGASSRATGIPGRFTGSGSGTDFTLTINRLEPEDSAVYYCQQYATSPRALTFGGGTKVEIK
Q: Does B2 bind [8]?
A: no binding (tested: 3200 nM (highest Fab concentration))

Q: Does B2 bind [9]?
A: no binding (tested: 3200 nM (highest Fab concentration))

Q: Does B2 bind [10]?
A: no binding (tested: 3200 nM (highest Fab concentration))

B3: early intermediate of clonotype B, IgG (antibody, V domains shown)
VH: QVQLQQSGPGLVKPSQTLSLTCAISGDSVSSNSAVWTWIRQSPSRGLEWLGRTYYRSKWYNDYAVSVKSRITINPDTSKNQFSLQLKSVTPEDTAVYYCARSGITIFGVIIMAMDIWGQGTTVTVSS
VL: EIVLTQSPGTLSLSPGERATLSCRASQNVAVSYLAWYQQKPGQPPRLLIYGASSRATGIPDRFTGSGSGTDFTLTINRLEPEDSAVYYCQQYGSSPRALTFGGGTKVEIK
Q: Does B3 bind [7]?
A: binds

B4: 54-1G05 VL early intermediate, IgG (54-1G05 VH paired with VL from the early intermediate of clonotype B) (antibody, V domains shown)
VH: QVQLQQSGPRLVKPSQTLSLTCAISGDSVSSSSAVWTWIRQSPSRGLEWLGRTYYRSKWYDDYAVSVQGRITINPDTSKNQISLQLNSVTPDDTAVYYCARSSINIFGVFVMAMDVWGQGTAVTVSS
VL: EIVLTQSPGTLSLSPGERATLSCRASQNVAVSYLAWYQQKPGQPPRLLIYGASSRATGIPDRFTGSGSGTDFTLTINRLEPEDSAVYYCQQYGSSPRALTFGGGTKVEIK
notes: IgG format
Q: Does B4 bind [2]?
A: binds

B5: ClonB UCA Fab (Fab, V domains shown)
VH: QVQLQQSGPGLVKPSQTLSLTCAISGDSVSSNSAVWTWIRQSPSRGLEWLGRTYYRSKWYNDYAVSVKSRITINPDTSKNQFSLQLKSVTPEDTAVYYCARSGITIFGVIIMAMDIWGQGTTVTVSS
VL: EIVLTQSPGTLSLSPGERATLSCRASQNVAVSYLAWYQQKPGQPPRLLIYGASSRATGIPDRFTGSGSGTDFTLTINRLEPEDSAVYYCQQYGSSPRALTFGGGTKVEIK
notes: also called early intermediate of clonotype B; EI (clonotype B)
Q: Does B5 bind [8]?
A: no binding (tested: 3200 nM (highest Fab concentration))

Q: Does B5 bind [9]?
A: no binding (tested: 3200 nM (highest Fab concentration))

B6: 54-1B01 (antibody, V domains shown)
VH: QVQLQQSGPGVVKPSQSLALTCAISGDSVSNDRVAWIWIRQSPSRGLEWLGRTYYRSKWYNDYANSVRGRMTINPDTSKNQFSLNLDSVTPDDTAVYYCARGMIFGRPLTGWYFDFWGRGTLVTVSS
VL: EIVLTQSPGTLSLSAGERVTLFCRASQHVSSGYLAWYQQKPGQAPRLLIYGATNRATGIPDRFSGSGSGTDFALTISRLEPEDFAVYYCQQFDSSSMYTFGQGTKLEIK
Q: What does the source list for B6?
A: binding result [11]: binds; binding result [12]: binds

B7: 54-1G07 (clonotype A), IgG (antibody, V domains shown)
VH: QVQLQQSGPGLVKPSQTLALTCGISGDTVSNNRVAWNWIRQSPSRGLEWLGRTYYRSKWYSDYSKSVTGRMTINPDTSKNQFSLHLDSVTPADTAVYYCARGMIFGWPLTGWYFDLWGRGTLVTVSS
VL: EIVLTQSPGTLSLSPGERVTLLCRASHHVSSGYLAWYQQKPGQAPRLLIYGATNRATGIPDRFSGSGSGTDFALTISRLEPEDFAVYYCQQFDSSSMYTFGQGTKLEIK
notes: IgG format
Q: Does B7 bind [6]?
A: binds

Q: Does B7 bind [7]?
A: binds

B8: 54-1G07 Fab (Fab, V domains shown)
VH: QVQLQQSGPGLVKPSQTLALTCGISGDTVSNNRVAWNWIRQSPSRGLEWLGRTYYRSKWYSDYSKSVTGRMTINPDTSKNQFSLHLDSVTPADTAVYYCARGMIFGWPLTGWYFDLWGRGTLVTVSS
VL: EIVLTQSPGTLSLSPGERVTLLCRASHHVSSGYLAWYQQKPGQAPRLLIYGATNRATGIPDRFSGSGSGTDFALTISRLEPEDFAVYYCQQFDSSSMYTFGQGTKLEIK
Q: Does B8 bind [9]?
A: no binding (tested: 3200 nM (highest Fab concentration))

B9: early intermediate of clonotype A, IgG (antibody, V domains shown)
VH: QVQLQQSGPGLVKPSQTLSLTCAISGDSVSSNSAAWNWIRQSPSRGLEWLGRTYYRSKWYNDYAVSVKSRITINPDTSKNQFSLQLNSVTPEDTAVYYCARGMIFNWPLGGWSFDLWGRGTLVTVSS
VL: EIVLTQSPGTLSLSPGERATLSCRASQSVSSSYLAWYQQKPGQAPRLLIYGASSRATGIPDRFSGSGSGTDFTLTISRLEPEDFAVYYCQQFDSSSMYTFGQGTKLEIK
Q: Does B9 bind [7]?
A: binds

B10: 54-4H03 Fab (Fab, V domains shown)
VH: QVQLQQSGPGLVKPSQTLSLTCAISGDSVSSNSVAWNWIRQSPSRGLEWLGRTYFRSKWYTDYAESLKSRMTINPDTSKNEFSLHLKSVTSDDTAVYYCVRGIIFNWPLGGWSFDLWGRGTLVSVSS
VL: EIVLTQSPGTLSLSPGDSATLSCRASQSVASSYLAWYQQKPGQSPRLLIYATINRAADIPDRFSGSGSGTDFALTISRLEPEDFAVYYCQQFDSSSMYTFGQGTKLEIT
Q: Does B10 bind [13]?
A: binds

B11: 54-4H03 VH G100cT/S100fY, IgG (54-4H03 light chain) (antibody, V domains shown)
VH: QVQLQQSGPGLVKPSQTLSLTCAISGDSVSSNSVAWNWIRQSPSRGLEWLGRTYFRSKWYTDYAESLKSRMTINPDTSKNEFSLHLKSVTSDDTAVYYCVRGIIFNWPLTGWYFDLWGRGTLVSVSS
VL: EIVLTQSPGTLSLSPGDSATLSCRASQSVASSYLAWYQQKPGQSPRLLIYATINRAADIPDRFSGSGSGTDFALTISRLEPEDFAVYYCQQFDSSSMYTFGQGTKLEIT
Q: Does B11 bind [2]?
A: no binding

Q: Does B11 bind [6]?
A: no binding

B12: 54-4H03 (clonotype A), IgG (antibody, V domains shown)
VH: QVQLQQSGPGLVKPSQTLSLTCAISGDSVSSNSVAWNWIRQSPSRGLEWLGRTYFRSKWYTDYAESLKSRMTINPDTSKNEFSLHLKSVTSDDTAVYYCVRGIIFNWPLGGWSFDLWGRGTLVSVSS
VL: EIVLTQSPGTLSLSPGDSATLSCRASQSVASSYLAWYQQKPGQSPRLLIYATINRAADIPDRFSGSGSGTDFALTISRLEPEDFAVYYCQQFDSSSMYTFGQGTKLEIT
Q: Does B12 bind [2]?
A: binds

Q: Does B12 bind [7]?
A: binds
